The values below are quoted from earlier work in article PMC2912364.

The Kd is a measure of binding affinity in units of concentration.

The data set addresses IL-15Rα (UniProt Q13261).
Chain of UniProt Q13261 (Q13261 31-205): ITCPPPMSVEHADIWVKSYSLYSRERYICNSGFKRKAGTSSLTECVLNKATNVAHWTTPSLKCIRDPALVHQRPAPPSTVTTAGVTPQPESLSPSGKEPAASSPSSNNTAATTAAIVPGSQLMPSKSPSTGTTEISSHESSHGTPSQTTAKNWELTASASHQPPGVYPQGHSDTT

IL-15 (from UniProt P40933): the Kd was 38 pM.
